Data reported in patent publication US20250011363A1, “OPTIMIZED SHORTENED PEPTIDE THAT BINDS TO ACETYLCHOLINE RECEPTOR, AND USE THEREOF” (SKINMED CO., LTD., priority 2021, published 2025).

Target: acetylcholine receptor
Experiment: SPR, peptide at 10 uM on immobilized AchR

Compared with RANVKR [6mer-2-1096], KHPKRR [6mer-2-1098] is lower in Binding affinity (RU): 39 RU for the first, 28 RU for the second.

First: KYSMRR [6mer-2-1095]
Second: KAWERK [6mer-2-1094]
The Binding affinity (RU) of the first is lower: 39 RU for the first, 43 RU for the second.

Going from RFWEKK [6mer-2-1097] to RAKFRR [6mer-2-1092], the Binding affinity (RU) falls from 23 RU to 21 RU.

With KTTDKK [6mer-2-1093] the Binding affinity (RU) was 43 RU.

Target: acetylcholine receptor
Experiment: SPR, AchR immobilized on chip, peptide 10 uM

Compared with KQFLR [5mer-149], RRVRK [5mer-466] is lower in Binding affinity (RU): 80 RU for the first, 53 RU for the second.

Compared with RVRTR [5mer-150], KWVTK [5mer-161] is lower in Binding affinity (RU): 64 RU for the first, 52 RU for the second.

Going from RRRRR [5mer-152] to RRYRK [5mer-472], the Binding affinity (RU) falls from 56 RU to 55 RU.

First: RSITR [5mer-154]
Second: KQLLK [5mer-461]
The Binding affinity (RU) of the first is lower: 54 RU for the first, 74 RU for the second.

Compared with KGLRK [5mer-156], RRIYR [5mer-467] is lower in Binding affinity (RU): 85 RU for the first, 83 RU for the second.

Going from KSIQR [5mer-171] to RWYRK [5mer-169], the Binding affinity (RU) rises from 55 RU to 61 RU.

First: RSIRR [5mer-160]
Second: KSRRR [5mer-469]
The Binding affinity (RU) of the first is lower: 53 RU for the first, 69 RU for the second.

Going from RSQLR [5mer-459] to RWFRK [5mer-465], the Binding affinity (RU) falls from 76 RU to 57 RU.

First: RLICK [5mer-170]
Second: KQRSK [5mer-470]
The Binding affinity (RU) of the first is higher: 62 RU for the first, 57 RU for the second.

First: RGVSK [5mer-452]
Second: KWYTK [5mer-463]
The Binding affinity (RU) of the first is higher: 82 RU for the first, 52 RU for the second.

First: KWRSK [5mer-165]
Second: RSRRR [5mer-172]
The Binding affinity (RU) of the first is lower: 56 RU for the first, 82 RU for the second.

Compared with RRFLK [5mer-458], KGVCR [5mer-453] is higher in Binding affinity (RU): 65 RU for the first, 68 RU for the second.

Going from RWQCK [5mer-468] to RGQYK [5mer-457], the Binding affinity (RU) rises from 54 RU to 59 RU.

Compared with RGYQR [5mer-162], KGRCR [5mer-157] is higher in Binding affinity (RU): 51 RU for the first, 78 RU for the second.

Compared with RWQSK [5mer-462], RQVLK [5mer-451] is lower in Binding affinity (RU): 69 RU for the first, 53 RU for the second.

First: KQFRK [5mer-167]
Second: KGLYR [5mer-449]
The Binding affinity (RU) of the first is lower: 64 RU for the first, 65 RU for the second.

First: KSICK [5mer-164]
Second: KRYLR [5mer-155]
The Binding affinity (RU) of the first is lower: 54 RU for the first, 57 RU for the second.

First: RSVSR [5mer-173]
Second: RSIQK [5mer-153]
The Binding affinity (RU) of the first is lower: 59 RU for the first, 72 RU for the second.

Compared with RGVTR [5mer-464], KLFSK [5mer-168] is higher in Binding affinity (RU): 57 RU for the first, 84 RU for the second.

First: RLVQR [5mer-473]
Second: KSFQR [5mer-166]
The Binding affinity (RU) of the first is higher: 75 RU for the first, 55 RU for the second.

First: RLVCK [5mer-456]
Second: RWLYK [5mer-455]
The Binding affinity (RU) of the first is lower: 52 RU for the first, 61 RU for the second.

Going from RQVLR [5mer-454] to KSLCK [5mer-163], the Binding affinity (RU) falls from 77 RU to 61 RU.

First: RVIQK [5mer-450]
Second: RVFTK [5mer-151]
The Binding affinity (RU) of the first is higher: 78 RU for the first, 66 RU for the second.

Going from RGQRR [5mer-159] to RGYLR [5mer-471], the Binding affinity (RU) falls from 73 RU to 69 RU.

First: RWQTK [5mer-158]
Second: RLQQR [5mer-460]
The Binding affinity (RU) of the first is lower: 65 RU for the first, 74 RU for the second.
